Data from the supplement of paper PMC7125110.
± gives the standard error. Variants at the floor of the assay were thinned out.

B1: glmS ribozyme (parent)
chain: AUAAAAGCGCCAGAACUACAGAAAUGUAGUUGACGAGGAGGAGGUUUAUCGAAUUUUCGGCGGAUGCCUCCAAA

How the values were obtained:
Details in all cases: with glucosamine-6-phosphate
[1] = variants of: B1; assay: self-cleavage kobs at 40 uM GlcN6P; higher = faster cleavage; RNA array
Outline: (§1)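 A hybridised Cy3 probe tracked barcoded ribozyme variants, transcribed in situ by E. coli RNA polymerase on sequenced MiSeq chips, at 37 °C. The variants received 40 μM to 10 mM glucosamine-6-phosphate in HEPES/KCl/Mg(OAc)2 buffer. kobs came from decay fits and kcat and KM from weighted Michaelis–Menten fits.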

[2] = variants of: B1; assay: self-cleavage kobs at 640 uM GlcN6P; higher = faster cleavage; RNA array
Outline: as §1

[3] = variants of: B1; assay: self-cleavage kobs at 10000 uM GlcN6P; higher = faster cleavage; RNA array
Outline: as §1

[4] = variants of: B1; assay: self-cleavage kobs at 160 uM GlcN6P; higher = faster cleavage; RNA array
Outline: as §1

[5] = variants of: B1; assay: self-cleavage kobs at 2500 uM GlcN6P; higher = faster cleavage; RNA array
Outline: as §1

G7U C16G was tested, and the “self-cleavage kobs at 40 uM GlcN6P” value [1] was under 1e-05 s⁻¹, the “self-cleavage kobs at 640 uM GlcN6P” value [2] was under 1e-05 s⁻¹ and the “self-cleavage kobs at 10000 uM GlcN6P” value [3] was under 1e-05 s⁻¹.

C8A A53C G59A C68A was tested, and the “self-cleavage kobs at 40 uM GlcN6P” value [1] was under 1e-05 s⁻¹ and the “self-cleavage kobs at 10000 uM GlcN6P” value [3] was under 1e-05 s⁻¹.

In the case of G7U C10G A12U U65G C68G, the “self-cleavage kobs at 40 uM GlcN6P” value [1] is reported as 7.58e-05 ± 2.2e-05 s⁻¹ and the “self-cleavage kobs at 10000 uM GlcN6P” value [3] is reported as 5.57e-05 ± 1.5e-05 s⁻¹.

With A6G G40C the “self-cleavage kobs at 40 uM GlcN6P” value [1] was under 1e-05 s⁻¹ and the “self-cleavage kobs at 640 uM GlcN6P” value [2] was under 1e-05 s⁻¹.

With G7U C16G G59A the “self-cleavage kobs at 40 uM GlcN6P” value [1] was under 1e-05 s⁻¹, the “self-cleavage kobs at 640 uM GlcN6P” value [2] was under 1e-05 s⁻¹ and the “self-cleavage kobs at 10000 uM GlcN6P” value [3] was under 1e-05 s⁻¹.

G7C G43U was tested, and the “self-cleavage kobs at 40 uM GlcN6P” value [1] was under 1e-05 s⁻¹, the “self-cleavage kobs at 160 uM GlcN6P” value [4] was under 1e-05 s⁻¹ and the “self-cleavage kobs at 640 uM GlcN6P” value [2] was under 1e-05 s⁻¹. For the same variant, the “self-cleavage kobs at 10000 uM GlcN6P” value [3] was under 1e-05 s⁻¹.

G7U C58G C68G was tested, and the “self-cleavage kobs at 40 uM GlcN6P” value [1] was 0.000149 ± 4.5e-05 s⁻¹, the “self-cleavage kobs at 160 uM GlcN6P” value [4] was 0.000633 ± 0.00028 s⁻¹ and the “self-cleavage kobs at 640 uM GlcN6P” value [2] was 0.00042 ± 0.00015 s⁻¹. The “self-cleavage kobs at 2500 uM GlcN6P” value [5] was 0.00158 ± 0.00066 s⁻¹ and the “self-cleavage kobs at 10000 uM GlcN6P” value [3] was 0.000116 ± 2.5e-05 s⁻¹.

In the case of G7U G35U U46A C67U U69C, the “self-cleavage kobs at 40 uM GlcN6P” value [1] is reported as under 1e-05 s⁻¹, the “self-cleavage kobs at 160 uM GlcN6P” value [4] is reported as under 1e-05 s⁻¹ and the “self-cleavage kobs at 640 uM GlcN6P” value [2] is reported as under 1e-05 s⁻¹. For the same variant, the “self-cleavage kobs at 2500 uM GlcN6P” value [5] was under 1e-05 s⁻¹.

In the case of A6U C10G A42G C50G C67A C70A, the “self-cleavage kobs at 40 uM GlcN6P” value [1] is reported as 0.000143 ± 4.1e-05 s⁻¹ and the “self-cleavage kobs at 10000 uM GlcN6P” value [3] is reported as 9.95e-05 ± 2.4e-05 s⁻¹.

C8A C10A C34U G60A was tested, and the “self-cleavage kobs at 40 uM GlcN6P” value [1] was under 1e-05 s⁻¹.

With G7U C8A U47G G60U the “self-cleavage kobs at 40 uM GlcN6P” value [1] was under 1e-05 s⁻¹ and the “self-cleavage kobs at 10000 uM GlcN6P” value [3] was under 1e-05 s⁻¹.

In the case of G7U G37A C58U U69G, the “self-cleavage kobs at 40 uM GlcN6P” value [1] is reported as 7.21e-05 ± 2.9e-05 s⁻¹.

For G7C G9C U31C G40A, the “self-cleavage kobs at 40 uM GlcN6P” value [1] was under 1e-05 s⁻¹ and the “self-cleavage kobs at 10000 uM GlcN6P” value [3] was under 1e-05 s⁻¹.

In the case of G7C C16G U47A, the “self-cleavage kobs at 40 uM GlcN6P” value [1] is reported as under 1e-05 s⁻¹, the “self-cleavage kobs at 160 uM GlcN6P” value [4] is reported as under 1e-05 s⁻¹ and the “self-cleavage kobs at 2500 uM GlcN6P” value [5] is reported as under 1e-05 s⁻¹. For the same variant, the “self-cleavage kobs at 10000 uM GlcN6P” value [3] was under 1e-05 s⁻¹.

With A6U G7U C10A G29A C34A C67G C68A C71U the “self-cleavage kobs at 40 uM GlcN6P” value [1] was 9.49e-05 ± 2.1e-05 s⁻¹, the “self-cleavage kobs at 640 uM GlcN6P” value [2] was 6.07e-05 ± 1.4e-05 s⁻¹ and the “self-cleavage kobs at 10000 uM GlcN6P” value [3] was 3.01e-05 ± 1.4e-05 s⁻¹.

A6G G44U was tested, and the “self-cleavage kobs at 40 uM GlcN6P” value [1] was under 1e-05 s⁻¹, the “self-cleavage kobs at 640 uM GlcN6P” value [2] was under 1e-05 s⁻¹ and the “self-cleavage kobs at 2500 uM GlcN6P” value [5] was under 1e-05 s⁻¹. For the same variant, the “self-cleavage kobs at 10000 uM GlcN6P” value [3] was under 1e-05 s⁻¹.

For G7C A15U G59C, the “self-cleavage kobs at 40 uM GlcN6P” value [1] was under 1e-05 s⁻¹, the “self-cleavage kobs at 160 uM GlcN6P” value [4] was under 1e-05 s⁻¹ and the “self-cleavage kobs at 640 uM GlcN6P” value [2] was under 1e-05 s⁻¹. For the same variant, the “self-cleavage kobs at 2500 uM GlcN6P” value [5] was under 1e-05 s⁻¹ and the “self-cleavage kobs at 10000 uM GlcN6P” value [3] was under 1e-05 s⁻¹.

For C8A C11U G38C C50U, the “self-cleavage kobs at 40 uM GlcN6P” value [1] was under 1e-05 s⁻¹, the “self-cleavage kobs at 640 uM GlcN6P” value [2] was under 1e-05 s⁻¹ and the “self-cleavage kobs at 2500 uM GlcN6P” value [5] was under 1e-05 s⁻¹.

In the case of G7U U31A G32U G41U A48U, the “self-cleavage kobs at 40 uM GlcN6P” value [1] is reported as under 1e-05 s⁻¹ and the “self-cleavage kobs at 10000 uM GlcN6P” value [3] is reported as under 1e-05 s⁻¹.

G7C U30A was tested, and the “self-cleavage kobs at 40 uM GlcN6P” value [1] was under 1e-05 s⁻¹, the “self-cleavage kobs at 160 uM GlcN6P” value [4] was under 1e-05 s⁻¹ and the “self-cleavage kobs at 640 uM GlcN6P” value [2] was under 1e-05 s⁻¹. For the same variant, the “self-cleavage kobs at 2500 uM GlcN6P” value [5] was under 1e-05 s⁻¹ and the “self-cleavage kobs at 10000 uM GlcN6P” value [3] was under 1e-05 s⁻¹.

In the case of C8A U55G A64C U69G, the “self-cleavage kobs at 40 uM GlcN6P” value [1] is reported as 0.000295 ± 0.00013 s⁻¹ and the “self-cleavage kobs at 10000 uM GlcN6P” value [3] is reported as 5.15e-05 ± 2.4e-05 s⁻¹.

With G7A C67G the “self-cleavage kobs at 40 uM GlcN6P” value [1] was under 1e-05 s⁻¹, the “self-cleavage kobs at 640 uM GlcN6P” value [2] was under 1e-05 s⁻¹ and the “self-cleavage kobs at 2500 uM GlcN6P” value [5] was under 1e-05 s⁻¹.

With C8A G40U C61U U69G the “self-cleavage kobs at 40 uM GlcN6P” value [1] was under 1e-05 s⁻¹ and the “self-cleavage kobs at 10000 uM GlcN6P” value [3] was under 1e-05 s⁻¹.
